In PMC4899274:

Target: triplex subunit VP23 (HSV-1) (human herpes simplex virus type 1 (HSV-1), strain KOS) (UniProt P10202)
Assay: cryo-EM structure

Substance: triplex subunit VP23 (HSV-1) (from UniProt P10202 1-318) (natural protein)
- stoichiometry N: 2
